Test: protease stability score; higher = more stable; yeast display proteolysis, trypsin and chymotrypsin;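 also: relative to predicted unfolded state with 0 unfolded-like and 1 meaning tenfold more protease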

Sequence | protease stability score
HEEEEHSIRILEEWWRALLTGDEDRLKELMDPHVLLLSDVGDKNHIHIGREEAFRFWHEFVRQVKNMTLRIDQVHVQGDKVHLRGTLLINGRERDIRIDILIINGKVREVRIKII | 2.45
HEEEEIERIAYNIYEYVRKTGDERVMTEMADPDARLIYGDKELVGREHMVQFLRWLLEQYKNVQLHIEHVEMIGDFVKIQSNLNVNGRTIEVELILLKYNGKWRIRSSVFK | 1.07
HEEEEIVHRFVEDWFRHLKTGDFRSLFQLLDPHTRTDINGKSIHGRDTIMTEIIENMIRLGVNHMEVRIHHISVVDGQAHIDIWLIIRVNGKEQAHHVHILAQKINGKWFLKDIRFE | 1.5
HEEEEKARYFLEIFFHHLLTGDWHILMELLDPDVRMEYDGKKFHGRESAIEIWRELRVTEIHIRHIHMFNGRVYADTEMRGIVNGVNTNTHSELYVRKYDGRWKVEFVVVH | 2.31
HEEEEKVERYTRMYWNHLLTGDEDILQELMDPHARSTEIYGDFRIENHGRKAQHWLLRRIDHITSLRIHDVQIVDGVALVDSESDYRIGDKEIRVRTELIVHVVNGKIKSVSISVR | 0.896
HEEEELARKLVEILLNLLLTGDEDVIRHLLDPNARIHIDGQDNVGREEVIRVWRHWLEKFGIDHIEINRIHYQGEWLHIIGLVKVNGRERPLHIHLNVINGRLKHSEFRIR | 1.48
HEEEELERTILELVLHYLKTGDEHFMKNMADPNARSTIGDKDLHGREWMSEVWKRIKNVRIEIDRVDMINGVVHLHITVEYNGRRTHLTLHAEKVDGRWIIRELRVE | 1.61
HEEEELLERAMKELEHILRTGDWELHEKNADPHVKLDVNGRIVHGRELVITVLRRLFEELGVDHIHLHDFKVVGDKMHIDLRIHVGDKEFQLEIIIIKIDGRWHIHSERFN | 0.363
HEEEELLERVIRLMVENIITGNEDQLNNLVDPHAKIDIDGVILHGRDWVRDLHERVDHMEVRITDWRMIGDKVQTDSRLTNRFNGKEYRRDVRFHAHKINGRWINQTIEIR | 0.722
HEEEEREKEISDTFLMAWRTGDWKFFHELADPHVRVEIGDKRFIGRELLTKHMRHNVNKVKGMTHTLTHIIIQGDKIHLDGELIVDGRSHKVDFHIIVIDGRLHSLHVIIS | 0.574
HEEEERLKEVLELVVESFRTGDFNYLKNLIDPNVRVTVGDKDVHGRDFFVRIMSEMRVTHYEFRHVERFNGQAHIDGELDIRIGDKRERHEIKIITLKINGKWYMETLIIQ | 1.18
HEEEESFKNALEMWIRTVKTGDEKLESDLLDPDARLIFNGQEFHGRELVKKILIDWRKELRVRDFELRDFHIQGDKIYIDGTMFVEINGQTETRKIVIVFVKVNGRWLIHQVTFH | 2.24
HEEEEWFKEVLHEVERLLMTGDWRTLVELLDPNVRININGVEYHGREEAHHKLEETFRRLGFDHIHFQHVEHQGEKVIVHLEVRFNGQSSIIRFVVLKVNGRWFNHSLQIN | 1.29
HEEEHDLKEVIRLFLELIDTGDEDVLERLADPNMRVIQGDKTIHGREEVRRTMQEDAKRIDHFEFRLRRVRVINGRLEVDGEFIERAEGHEFRSRVNIMLVKVNGRWVLKIIELR | 1.65
HEEEHEMRKLAHILFEVLLTGNWKLLAELADPDVLTHINGRDMHGMESELETWKHLRIRDMKIRHVDVQGDKVHLDTELEGEINGRRFQTRTHIHYLLVDGRTKHVKVQID | 1.51
HEEEHHMRELFKRFWHLFETGDWDKLAKNADPNVRSDINGVDRHGREEVIHELKRIWDELGIDHLELKEVHIQGNKVHSDGKLVYNGVSRKTHIELIVYNGVLKRMSIEIH | 1.38
HEEEHVAKEIVEILYHAIITGDEDLIKELMDPNVRLDINGKQVHGRDEWIKELRHLRFRHMKLEVKAVEVVDGRIHSDVILHVDGHFDGRTRRLTIEVHWIIFKINGRWHIQSVEIR | 2.31
HEEEKEIEKWVRLLLEVIQTGDEHWFERMADPNARVEVGEFEKHGRELFFEMTVRIVKKLGVDHVQLRRFDLIDGVALDHMELRIGDKHVEFIHISSKVNGRWFDKEVRVREI | 0.939
HEEEKHAHEVLQLFIESVETGDWRMWEHLADPHVRLEVNGQEVIGREDALRWLEELLKKLGVDHFKLELEDHHIQGEKVRSITRSHIRVNGVRIDRTTHVIIVVINGRLKHIEVRER | 0.204
HEEEKHLKEMIERLYHYQLTGNWEELHRLADPHAKWHINGQDIHGMHIAVELILKEVRRIDHVDSDSKRIDMQGDKMRSNVHEIIEVGDKSIRRDSILILVIIDGRIREVSIIIL | 1.1
HEEEKHMEELSRHFLHNEHTGDEKMLKHLADPHAKVFINGRELHGWDVLVEWLNKFKNIKVELHSERVINGRLFLHVNYHVNGRTTELHLILYIVDGKIHTLILEVR | 0.756
HEEEKHREDFVRTWLHNLITGNFEHHRHLADPRVRIRIIVDGREQRIHGREEMIRWFREWMELFPGYYRHIEHSDIIGEYVHIEGQLEVNGKRLDVHIHLEVINGKIKHLTIDSR | 1.09
HEEEKIIEEASKRWLELMQTGDEDKVLHYLDPEYRSEWDGVEIHGRETFRKWLLDLLRKFKGLRFEFRDVRDVGDKVRIIGTVTYDGKVRDTRIDVVIVNGRYKSMEIHFN | 1.69
HEEEKLARTFSEVVERSLYTGDEDSLKRLMDPHVRMNVNGVRHIGMELAKEWLHRYIRQLGIDHSTIRHSHDEIQGEKVIVRLHGELVYNGVSREVELIIHVNKVNGVWTISELLVILK | 1.25
HEEEKLNHLWYEIVVHLLLTGNWKEIKKNADPHARSDINGVEYHGREEVSEVLHHVMKKMGAKVFREKEHDHQGEYMHIHFEIRVGDKLVESTLISLKVDGRWIHHEYREK | 1.37

Sequence | protease stability score
HEEEKQIHDIIEIIIRLLVTGNEEIHKRLADPHVRVEVGDKHFHGREEVTKFLMRIDHVQHVDHRIHRMDIIDGRADVHGDLLIDGDFDGRRTRTDIRVRWRIIKIDGRWILHSYSVL | 1.24
HEEEKQMREAVEEAYHVLRTGDEKTIRELADPDVRLDINGKEIIGRELFFRHLWYEFYFFKNMRITIKHYEIQGEKVHIHIEIDWNGKELRSHMEVDKVDGRWLLHSVIFR | 0.783
HEEEKSRKKEFEEYVRSVKTGDERLLTEMADPNARVHIGDKTLIGRELMHEMWHEQLKQIDVFHDIKTTHSEVQGDKIHMHVVEDIIIGDKRHTIRLRMIAWKFNGKWLVEEVRFE | 0.435
HEEEQEIEKIVEDILRAWETGDWKTFYELADPHTKHTLIQGDKHIHRHGRDRMSDLLEELLKRFKGAIVDIKDIKWIDGQLNMTGELQIGDKKHKVHLHMNFIDGKIKRIEIRVD | 1.13
HEEERDAEKLIRIWYHYLVTGDEERLLELLDPSTRMDINGVTHHGMEIVRDALHDLLRHLGVKVFRDIHIESVEIQGEKVITRMHVLFEVDGQELRIDSILFSHKINGKWLIEMHSKK | 1.23
HEEERDLEHWDELLLKSITTGDWRILTKLVDPHARIIILVNGKLITHIGREYVYHLLLRFDHIRTHDFRTNIQGDYIDHHIEGKLHVNGKDMDSHIINHSEKVDGRWTVHTVNIEFI | 1.22
HEEEREAHEMLRIIVHAIRTGDEELLMRYLDPDVRMILLVDGVEVHRIGREEASKLISELWHHIRLKDLKVREIDNQGEYSHVRTERDGEVNGKKNTLETELDIIVIDGRVTDVTIRIR | 1.1
HEEERHREEIMERLLTAIKTGDPKITRELIDPHTRIEIGDKNLHGMEIWLKYIHTLFEKFPNLTLRIEDSHAQGEKFIIVIRLRFDGREVNLVLYYTIVNGRIKTIEIEEK | 1.43
HEEERILRFYLEWIEHHLRTGDERFIEENADPNVKIRVNGKDIHGRERYNEVWDKVLRDFGVDHTNDKDTTAYDGRIEVHEEWRFNGRRVDVETIIIFINGVIKHIEIRIRIE | 2.12
HEEERIVEEVAKHFLHHFVTGDWHNLARLADPHVRSDINGRELHGWETLIHVMLKDLRRLGFKHFEVHHVHIQGDKYHNDGTLDYNGVKVRSHLEFQIVDGKLHQMRVQDK | 1.07
HEEERLAREYMKRLIHDWVTGDEREHLKLLDPDVRFVQGDKHHHGREEMMRWFQEIRVEDLKHTDEKVYGEKAFVTGHTTWNINGQKIEVKVHYEFVVVNGRVKMIRIDVQ | 1.22
HEEETHWRSLTHLFAEWIITGNEDLYMELADPHYLIEIDGKTQHGRENANEVHETFWKDYGFKHRHVRSVRQVGDFVEIEVNLLFNGQRYDMHIHVFVIDGKLKEIHVSLK | 1.33
HEEHDEMQEALRRFIDILHTGDEKERKELADPHVRIDVDGVDHHGREWLTKWTVRLAREMRIHPEIKHSEVFNGQIELHTSEKVDFNGVHEIIESFLLVIKINGRWFLTHVQVH | 0.92
HEEHEEAWHEIELTYHLLNTGDFDEMNRLLDPNVRIHIGDKRYHGRHELDLLITKLGVKHVRWEVKHADIQGDKVDMDTIVHITQGDKEIRRDTRIKIRKIDGKWFVTELHVT | 1.28
HEEHEKLRQLIEWYLEMLRTGDEESWLHLADPHVRNDVIYDGRHFQSHGRDRALDLLRLMLDLLGAKHLEVKRYRVIDGRVELDGRSRVGDKYQEMHLHLDVFNGRIHEMRIEIR | 0.58
HEEHESLRRATRHELQTLETGDEDLFEKLVDPNYKVVINGVELHGMHELRRWIIELRIDDFELHDVNVVNGRASIDGTMHTHVNGQRLERKVRIHIEKINGRWVRREYIYH | 0.726
HEEHKHVKELAEMLIEWFLTGDEETTLDMADPDVRIDINGVDKIGRETVVEFKKRQHRDLGWDNIRFRPTHINAFDGRINIEGVIIVNGVTFKTEFRFEVINGRLKLDKWIVR | 0.661
HEEKELVNRSVELSYRVLKTGDEHTLEELLDPDAKTRLNINGKNEKLVGRENVLHIVTWFLDFLGIKHVELRDVRYVGDKVHIDMQIDVNGRHSRWHLIAEKIDGRWFMHSIQVEVH | 0.18
HEEKENIEQFMRDLLHNWTTGNFEKIKEFLDPNTRIDWNGKDIHGRETESEEVKKYGIDHMSIILRHHTVQGDYAHIDTEIKIDINGRKIHIDARIDLLKINGRWVQKHVLYL | 1.3
HEEKHEVQRFLEMLIELLVTGNEEILEHLADPHVRLEIDGRHFHGWKEFTRQYSELLKKLGADHVDMKIHEVHIIGDKVFIRGTDEFRVGDKTERKESHWVLLKVDGRWFIHSVKIG | 1.99
HEEKHLMDEALELIKYFTETGDERQLTEYADPNVRIDIDGQRFHGREDWEELVREWNSRFKNLKFNFREIDVQGEFIHTRGELNVNGKRFDVRIVSDKINGRWILHSIHFE | 1.58
HEELELRRRVLENWTKNMITGNEEETKKLADPNVRIDIDGVELHGMDIWYEYMRHIRIKIQHIERKDVKDYDGKVEVDADSHVEMEVNGKLTSTRRKLIFIHLKVDGRWVIHSISFH | 0.823
HEENKELEDLLRVWMELVETGDEEELLKLADPDWRLDINGRRIHGRDKVLTWLREHREKLGVDHRHLFLKDVRTVNGRVDANGENEVQVNGKRIVIDIRFHLVVINGRIHMISLRLH | 1.15
HEEQELLEEFVEKLRQTLETGDEHFTRELLDPNVRYVQGDKEWHGRDLAAELNKKLGIKVVDIKHVRYWNGRLDLRGEDQVGDKTTHTILHVDKFNGRWFYKEVIFV | 0.721
HEEQKAIEEWAKRLWDVLLTGDEDELHELLDPHVKLEVHVDGKTIHRHGREEVIRFMVEMRIRDFKIEHVQMYGDKLHMNTRSRGIYNGKHRETEVSIIVTVVNGRLKMIIIEIR | 2.06

Source: the NTF2 design screens of Basanta et al. (2020)
